Results: patent US20240043504A1

What was measured:
[1] = molecular target: T1, SARS-CoV-2 Spike Protein (RBD)(R319-F541).mmH (SARS-CoV-2); assay: Luminex bead binding, supernatant; conditions: remark: other sources report otherwise
[2] = molecular target: T1, SARS-CoV-2 Spike Protein …; assay: Luminex bead binding, supernatant; conditions: remark: other sources report otherwise; remark: listed apart in the source

Binder	Binding signal (MFI) [1] [MFI]	Binding signal (MFI) [2] [MFI]
mAb10998 (antibody, V domains shown) VH: EVQLVESGGGLVHPGGSLRLSCAASGLTVSSNYMSWVRQAPGKGLEWVSVIYSGGSTYYADSVKGRFTISRHNSKNTLFLQMNSLRAEDTAVYYCARDRPITGTTLDVWGQGTTVTVSS VL: DIQMTQSPSSLFASVGDRVTITCRASQSISSYLNWYQQKPGKAPKLLIYAASSLQSGVPSRFSGSGSGTDFTLTISSLQPEDFAFYYCQQTYSTPPITFGQGTRLEIK	1850	3840
mAb11006 (antibody, V domains shown) VH: EVQLVESGGGLVQPGGSLRLSCAASGFIVSRNYMSWVRQAPGKGLEWVSVIYSGGSTFYADSVKGRFTISRHNSKNTLYLQMNSLKAEDTAVYYCARELRGYFDYWGQGTLVTVSS VL: DIQLTQSPSFLSASVGDRVTITCWASQGISSYLAWYQQKPGKAPKLLIYAASTLQSGVPSRFSGSGSGTEFTLTISSLQPEDFATYYCQLLNSYPYTFGQGTKLEIK	5130	4740
mAb11008 (antibody, V domains shown) VH: EVQLVESGGGLVQPGGSLRLSCAASGFTVSSNYMTWVRQAPGKGLEWVSVIYSGGSTFYADSVKGRFTISRHNSENTLYLQMNSLRAEDTAVYYCARDLAAAGTDYWGQGALVTVSS VL: DIQLTQSPSFLSASVGDRVTITCWASQGISSYLAWYQQKPGKAPKLLIYAASTLQSGVPSRFSGSGSGTEFTLTISSLQPDDFATYYCQHLNSYLYTFGQGTKLEIK	4050	3180
mAb11004 (antibody, V domains shown) VH: QVQLVESGGGVVQPGRSLRLSCVASGFTFSIYGMDWVRQAPGKGLEWVAVISYDGSNKYYADSVKGRFTISRDNSKNTLYLQMNSLRPEDTAVYYCAKDREAAADAFDIWGQGTMVTVSS VL: DIQMTQSPSSVSASVGDRVTITCRASQGISSWLAWYQQKPGKAPKLLIYAASSLHSGVPSRFSGSGSGTDFTLTISSLQPEDFATYYCQQANSFRLTFGGGTKVEIK	3350	11300
